Measured values as given in article PMC9842712, “Cryo-EM structure of hnRNPDL-2 fibrils, a functional amyloid associated with limb-girdle muscular dystrophy D3” (Nature Communications, 2022).

T1: hnRNPDL-2 (soluble) (human, UniProt O14979-2 1-301)
T1 sequence: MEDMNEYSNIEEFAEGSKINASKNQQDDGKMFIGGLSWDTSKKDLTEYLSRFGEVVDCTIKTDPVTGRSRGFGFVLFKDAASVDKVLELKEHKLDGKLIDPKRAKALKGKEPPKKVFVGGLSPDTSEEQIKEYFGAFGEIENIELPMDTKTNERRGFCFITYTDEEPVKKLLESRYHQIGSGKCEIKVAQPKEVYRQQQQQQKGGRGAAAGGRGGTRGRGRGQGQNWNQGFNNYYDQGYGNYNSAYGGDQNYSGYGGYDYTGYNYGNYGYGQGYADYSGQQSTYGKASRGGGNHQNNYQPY

B1: hnRNPDL-2 (human heterogeneous ribonucleoprotein D-like, isoform 2), wild type (natural protein, UniProt O14979-2 1-301, looked up)
chain: T1 sequence
notes: Heterogeneous nuclear ribonucleoprotein D-like, human, isoform hnRNPDL-2 of 301 residues (RRM1, RRM2, C-terminal Y/G-rich LCD ~201-285, PY-NLS 281-301; exon 6 = residues 224-280). numbers count on: hnRNPDL-2 (the 301-residue isoform); Cloned in pETite with a His-SUMO N-terminal tag; In the fibril the subunits stack in a single protofilament; also called WT hnRNPDL-2; full-length hnRNPDL-2; …

Experiments:
[1] = target: T1, hnRNPDL-2 (soluble); assay: EMSA; apparent Kd, Hill fit; 50 nM probe; EMSA: 10 ul, 50 nM probe, 24 h at RT, 8% polyacrylamide gel, buffer not stated; fibril binding: 24 h at RT, spin 16,000 x g at 4 C, pellet wash 50 mM HEPES pH 7.5, 150 mM NaCl; conditions: protein: recombinant; tags: N-terminal His-SUMO (expression construct); label: fluorescein, printed at 5' side (F-); FITC in peer review file; single strand, 7-mer
[2] = target: the molecule itself; assay: cryo-EM structure; helical reconstruction of amyloid fibrils formed at pH 7.5, 300 mM NaCl; single protofilament, cross-beta stacking of subunits; 2.5 Å

| Binder | Kd [1] | binding result [2] |
| --- | --- | --- |
| GACUAGC (ssRNA) [F-RNA (F-GACUAGC)] | 22.8 ± 3.95 µM | – |
| B1 | – | binds |
